This passage reports fraction ligated results from the supplement of paper PMC6755084.

Sequences and labels used below:
B1: F1*; the commonest letter at each place (parent)
chain: GAGACCGCAACTGAAAAGTTGTTATCACTTGTCGTAAGACACTTTGGATGGGTTGAAGTTCTGCACGTAGAAGCAAAAGGC

This data set covers variants of B1. Description: fraction ligated after 30 min (ligated reads / total reads); higher = more ligase activity. The conditions noted are these: with F1*sub RNA substrate (template-directed ligation), 42 °C. A digest of the protocol: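 Oligo-pool templates of ligase ribozyme variants were PCR-amplified, T7-transcribed and gel-purified. Ligated and unligated bands were gel-separated, reverse transcribed with barcoded primers, and MiSeq-sequenced; core bases were filtered at quality ≥20. Fraction ligated per variant was ligated reads over total reads.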
For the variant GAGACCGCAACTGAAAAGTTGTTATTACTTGTGGTAAGACACTTTGGATGGGTTGAAGTTCTGCACGTAGAAGCAAAAGGC, the fraction ligated worked out at 0.819. On to GAGACCGCAACTGAAAAGTTGTTATTACTTGTTGTAAGACACTTTGGATGGGTTGAAGTTCTGCACGTAGAAGCAAAAGGC, for which the fraction ligated was determined as 0.829. Under GAGACCGCAACTGAAAAGTTGTTATTACTTGTAGTAAGACACTTTGGATGGGTTGAAGTTCTGCACGTAGAAGCAAAAGGC stands 0.798; under GAGACCGCAACTGAAAAGTTGTTATTACTTGTCGTAAGACACATTGGATGGGTTGAAGTTCTGCACGTAGAAGCAAAAGGC, 0.827; under GAGACCGCAACTGAAAAGTTGTTATTACTTGTCGTAAGACACCTTGGATGGGTTGAAGTTCTGCACGTAGAAGCAAAAGGC, 0.788. Turning to GAGACCGCAACTGAAAAGTTGTTATTACTTGTCGTAAGACACGTTGGATGGGTTGAAGTTCTGCACGTAGAAGCAAAAGGC, the fraction ligated is 0.79. As for GAGACCGCAACTGAAAAGTTGTTATTACTTGTCGAAAGACACTTTGGATGGGTTGAAGTTCTGCACGTAGAAGCAAAAGGC, the figure is 0.854. As for GAGACCGCAACTGAAAAGTTGTTATTACTTGTCGCAAGACACTTTGGATGGGTTGAAGTTCTGCACGTAGAAGCAAAAGGC, the figure is 0.792; as for GAGACCGCAACTGAAAAGTTGTTATTACTTGTCGGAAGACACTTTGGATGGGTTGAAGTTCTGCACGTAGAAGCAAAAGGC, 0.817.

With GAGACCGCAACTGAAAAGTTGTTATCCCTTGTCGTAAGCCACTTTGGATGGGTTGAAGTTCTGCACGTAGAAGCAAAAGGC, the fraction ligated was determined as 0.785.

With GAGACCGCAACTGAAAAGTTGTTATCCCTTGTCGTAAGGCACTTTGGATGGGTTGAAGTTCTGCACGTAGAAGCAAAAGGC, the fraction ligated amounted to 0.809. As for GAGACCGCAACTGAAAAGTTGTTATTACTTGTCGTAAGACACTTTTGATGGGTTGAAGTTCTGCACGTAGAAGCAAAAGGC, the figure is 0.758. Under GAGACCGCAACTGAAAAGTTGTTATTACTTGTCGTAAGACACTTTAGATGGGTTGAAGTTCTGCACGTAGAAGCAAAAGGC stands 0.835. In the case of GAGACCGCAACTGAAAAGTTGTTATTACTTGTCGTAAGACACTTTCGATGGGTTGAAGTTCTGCACGTAGAAGCAAAAGGC, the fraction ligated was found to be 0.81. As for GAGACCGCAACTGAAAAGTTGTTATTACTTGTCGTAAGACACTCTGGATGGGTTGAAGTTCTGCACGTAGAAGCAAAAGGC, the figure is 0.822; as for GAGACCGCAACTGAAAAGTTGTTATTACTTGTCGTAAGACACTGTGGATGGGTTGAAGTTCTGCACGTAGAAGCAAAAGGC, 0.836. For GAGACCGCAACTGAAAAGTTGTTATTACTTGTCGTAAGACACTATGGATGGGTTGAAGTTCTGCACGTAGAAGCAAAAGGC, the fraction ligated worked out at 0.845. Under GAGACCGCAACTGAAAAGTTGTTATTACTTATCGTAAGACACTTTGGATGGGTTGAAGTTCTGCACGTAGAAGCAAAAGGC stands 0.342; under GAGACCGCAACTGAAAAGTTGTTATTACTTCTCGTAAGACACTTTGGATGGGTTGAAGTTCTGCACGTAGAAGCAAAAGGC, 0.408.

Turning to GAGACCGCAACTGAAAAGTTGTTATTACTTTTCGTAAGACACTTTGGATGGGTTGAAGTTCTGCACGTAGAAGCAAAAGGC, the fraction ligated was 0.585.

On to GAGACCGCAACTGAAAAGTTGTTATTACTTGTCGTAAGAGACTTTGGATGGGTTGAAGTTCTGCACGTAGAAGCAAAAGGC, for which the fraction ligated was found to be 0.817.

GAGACCGCAACTGAAAAGTTGTTATTACTTGTCGTAAGATACTTTGGATGGGTTGAAGTTCTGCACGTAGAAGCAAAAGGC: the fraction ligated amounted to 0.833. Under GAGACCGCAACTGAAAAGTTGTTATTACTTGTCGTAAGAAACTTTGGATGGGTTGAAGTTCTGCACGTAGAAGCAAAAGGC stands 0.797.

In the case of GAGACCGCAACTGAAAAGTTGTTATTACTTGCCGTAAGACACTTTGGATGGGTTGAAGTTCTGCACGTAGAAGCAAAAGGC, the fraction ligated worked out at 0.792. As for GAGACCGCAACTGAAAAGTTGTTATTACTTGACGTAAGACACTTTGGATGGGTTGAAGTTCTGCACGTAGAAGCAAAAGGC, the figure is 0.701; as for GAGACCGCAACTGAAAAGTTGTTATTACTTGGCGTAAGACACTTTGGATGGGTTGAAGTTCTGCACGTAGAAGCAAAAGGC, 0.801; as for GAGACCGCAACTGAAAAGTTGTTATCCCTTGTCGTATGACACTTTGGATGGGTTGAAGTTCTGCACGTAGAAGCAAAAGGC, 0.82. As for GAGACCGCAACTGAAAAGTTGTTATCCCTTGTCGTACGACACTTTGGATGGGTTGAAGTTCTGCACGTAGAAGCAAAAGGC, the figure is 0.793; as for GAGACCGCAACTGAAAAGTTGTTATCCCTTGTCGTAGGACACTTTGGATGGGTTGAAGTTCTGCACGTAGAAGCAAAAGGC, 0.817. Regarding GAGACCGCAACTGAAAAGTTGTTATCCCTTGTCGTGAGACACTTTGGATGGGTTGAAGTTCTGCACGTAGAAGCAAAAGGC, the fraction ligated came to 0.821. As for GAGACCGCAACTGAAAAGTTGTTATCCCTTGTCGTTAGACACTTTGGATGGGTTGAAGTTCTGCACGTAGAAGCAAAAGGC, the figure is 0.817; as for GAGACCGCAACTGAAAAGTTGTTATCCCTTGTCGTCAGACACTTTGGATGGGTTGAAGTTCTGCACGTAGAAGCAAAAGGC, 0.793. Under GAGACCGCAACTGAAAAGTTGTTATTACTTGTCGTAAGACACTTTGGATGGGTTGATGTTCTGCACGTAGAAGCAAAAGGC stands 0.852; under GAGACCGCAACTGAAAAGTTGTTATTACTTGTCGTAAGACACTTTGGATGGGTTGAGGTTCTGCACGTAGAAGCAAAAGGC, 0.86.

For the variant GAGACCGCAACTGAAAAGTTGTTATTACTTGTCGTAAGACACTTTGGATAGGTTGAAGTTCTGCACGTAGAAGCAAAAGGC, the fraction ligated worked out at 0.0828. Regarding GAGACCGCAACTGAAAAGTTGTTATTACTTGTCGTAAGACACTTTGGATTGGTTGAAGTTCTGCACGTAGAAGCAAAAGGC, the fraction ligated was determined as 0.238. Under GAGACCGCAACTGAAAAGTTGTTATTACTTGTCGTAAGACACTTTGGATCGGTTGAAGTTCTGCACGTAGAAGCAAAAGGC stands 0.0206; under GAGACCGCAACTGAAAAGTTGTTATTAATTGTCGTAAGACACTTTGGATGGGTTGAAGTTCTGCACGTAGAAGCAAAAGGC, 0.795. As for GAGACCGCAACTGAAAAGTTGTTATTATTTGTCGTAAGACACTTTGGATGGGTTGAAGTTCTGCACGTAGAAGCAAAAGGC, the figure is 0.733. Under GAGACCGCAACTGAAAAGTTGTTATTAGTTGTCGTAAGACACTTTGGATGGGTTGAAGTTCTGCACGTAGAAGCAAAAGGC stands 0.768; under GAGACCGCAACTGAAAAGTTGTTATTACTTGTCATAAGACACTTTGGATGGGTTGAAGTTCTGCACGTAGAAGCAAAAGGC, 0.832; under GAGACCGCAACTGAAAAGTTGTTATTACTTGTCTTAAGACACTTTGGATGGGTTGAAGTTCTGCACGTAGAAGCAAAAGGC, 0.812.

On to GAGACCGCAACTGAAAAGTTGTTATTACTTGTCCTAAGACACTTTGGATGGGTTGAAGTTCTGCACGTAGAAGCAAAAGGC, for which the fraction ligated turned out to be 0.855. As for GAGACCGCAACTGAAAAGTTGTTATTACATGTCGTAAGACACTTTGGATGGGTTGAAGTTCTGCACGTAGAAGCAAAAGGC, the figure is 0.845. Consider GAGACCGCAACTGAAAAGTTGTTATTACCTGTCGTAAGACACTTTGGATGGGTTGAAGTTCTGCACGTAGAAGCAAAAGGC, for which the fraction ligated was 0.848. As to GAGACCGCAACTGAAAAGTTGTTATTACGTGTCGTAAGACACTTTGGATGGGTTGAAGTTCTGCACGTAGAAGCAAAAGGC, the fraction ligated was determined as 0.816. For GAGACCGCAACTGAAAAGTTGTTATCCCTTGTCGTAAGACACTTTGGATGGGTTGAAGTTCTGCACGTAGAAGCAAAAGGC, the fraction ligated is 0.81.

For GAGACCGCAACTGAAAAGTTGTTATTACTTGTCGTAAGACACTTTGTATGGGTTGAAGTTCTGCACGTAGAAGCAAAAGGC, the fraction ligated turned out to be 0.182. Under GAGACCGCAACTGAAAAGTTGTTATTACTTGTCGTAAGACACTTTGAATGGGTTGAAGTTCTGCACGTAGAAGCAAAAGGC stands 0.843; under GAGACCGCAACTGAAAAGTTGTTATTACTTGTCGTAAGACACTTTGCATGGGTTGAAGTTCTGCACGTAGAAGCAAAAGGC, 0.0296; under GAGACCGCAACTGAAAAGTTGTTATTACTTGTCGTAAGACACTTTGGACGGGTTGAAGTTCTGCACGTAGAAGCAAAAGGC, 0.122. Turning to GAGACCGCAACTGAAAAGTTGTTATTACTTGTCGTAAGACACTTTGGAAGGGTTGAAGTTCTGCACGTAGAAGCAAAAGGC, the fraction ligated is 0.392. Under GAGACCGCAACTGAAAAGTTGTTATTACTTGTCGTAAGACACTTTGGAGGGGTTGAAGTTCTGCACGTAGAAGCAAAAGGC stands 0.405. As for GAGACCGCAACTGAAAAGTTGTTATTACTTGTCGTAAAACACTTTGGATGGGTTGAAGTTCTGCACGTAGAAGCAAAAGGC, the fraction ligated was 0.823. Under GAGACCGCAACTGAAAAGTTGTTATTACTTGTCGTAACACACTTTGGATGGGTTGAAGTTCTGCACGTAGAAGCAAAAGGC stands 0.81; under GAGACCGCAACTGAAAAGTTGTTATTACTTGTCGTAATACACTTTGGATGGGTTGAAGTTCTGCACGTAGAAGCAAAAGGC, 0.478; under GAGACCGCAACTGAAAAGTTGTTATTACTCGTCGTAAGACACTTTGGATGGGTTGAAGTTCTGCACGTAGAAGCAAAAGGC, 0.839. Under GAGACCGCAACTGAAAAGTTGTTATTACTGGTCGTAAGACACTTTGGATGGGTTGAAGTTCTGCACGTAGAAGCAAAAGGC stands 0.861; under GAGACCGCAACTGAAAAGTTGTTATTACTAGTCGTAAGACACTTTGGATGGGTTGAAGTTCTGCACGTAGAAGCAAAAGGC, 0.832; under GAGACCGCAACTGAAAAGTTGTTATTACTTGTCGTAAGACACTTTGGATGGGTTCAAGTTCTGCACGTAGAAGCAAAAGGC, 0.3. With GAGACCGCAACTGAAAAGTTGTTATTACTTGTCGTAAGACACTTTGGATGGGTTTAAGTTCTGCACGTAGAAGCAAAAGGC, the fraction ligated was found to be 0.815.

For the variant GAGACCGCAACTGAAAAGTTGTTATTACTTGTCGTAAGACACTTTGGATGGGTTAAAGTTCTGCACGTAGAAGCAAAAGGC, the fraction ligated was 0.811. Under GAGACCGCAACTGAAAAGTTGTTATTACTTGTCGTAAGACACTTAGGATGGGTTGAAGTTCTGCACGTAGAAGCAAAAGGC stands 0.779. In the case of GAGACCGCAACTGAAAAGTTGTTATTACTTGTCGTAAGACACTTGGGATGGGTTGAAGTTCTGCACGTAGAAGCAAAAGGC, the fraction ligated amounted to 0.28. Under GAGACCGCAACTGAAAAGTTGTTATTACTTGTCGTAAGACACTTCGGATGGGTTGAAGTTCTGCACGTAGAAGCAAAAGGC stands 0.524; under GAGACCGCAACTGAAAAGTTGTTATTACTTGTCGTAAGACATTTTGGATGGGTTGAAGTTCTGCACGTAGAAGCAAAAGGC, 0.837; under GAGACCGCAACTGAAAAGTTGTTATTACTTGTCGTAAGACAGTTTGGATGGGTTGAAGTTCTGCACGTAGAAGCAAAAGGC, 0.795. With GAGACCGCAACTGAAAAGTTGTTATTACTTGTCGTAAGACAATTTGGATGGGTTGAAGTTCTGCACGTAGAAGCAAAAGGC, the fraction ligated came to 0.804.
